Two proteins from patent publication US20160039867A1 (COMPLIX, published 2016) can be followed below.

Data set [1] deals with the molecule itself. The data set is described as follows: CD thermal unfolding curve (222 nm, 292 microM peptide) fitted to a monomer-trimer equilibrium; self-association of the peptide. The protocol:
The said synthesized peptide was dissolved at a concentration of 292 microM in 20 mM phosphate buffer (PBS), 150 mM NaCl, pH 7.2. The CD spectra were measured between […], at 5° C. and 90° C. (FIG. 3). The spectrum at 5° C. was indicative of a high alpha-helical secondary structure content, in agreement with the expectation that all heptad regions, but not all of the flanking residues, would assemble as alpha-helical coiled coils.
In order to analyze whether the temperature-induced transition between helical and non-helical states was reversible, a forward (up) and backward (down) thermal scan was performed on the same sample, by recording the CD signal at […] as a function of temperature at a scanning rate of about 1 degree Celsius per minute (FIG. 4). It was observed that the up and down scans almost perfectly coincided, thereby confirming the quantitative unfolding and refolding of the peptides in the sample.
FIG. 5 represents fitting of a theoretic equation for trimeric association to experimental data. The experimental data are taken from FIG. 4, curve labeled ‘UP’. The theoretic equations used are listed supra. The fitted parameters (fitting results) are listed at the right in FIG. 5. ‘Transit. T’ corresponds to Tₜ, but is expressed in degrees Celsius. The parameter ‘delta Cₚ’ was kept constant at 3.0 kJ mol⁻¹ K⁻¹. […]

Data set [2] concerns the molecule itself. Briefly: analytical sedimentation equilibrium ultracentrifugation, 25000 rpm, about 1 mg/ml; self-association of the peptide.

B1: peptide Ac-MSIEEIQKQQAAIQKQIAAIQKQIYRMTP-NH2 (reference artificial peptide of Example 3) (peptide)
peptide: Ac-MSIEEIQKQQAAIQKQIAAIQKQIYRMTP-NH2
notes: Synthetic designed coiled coil-forming peptide; also called said synthesized peptide
Consider B1, for which the binding result in data set [1] is recorded as “binds”.

B2: Q2aI peptide Ac-MSIEEIQKQIAAIQKQIAAIQKQIYRMTP-NH2 (peptide)
peptide: Ac-MSIEEIQKQIAAIQKQIAAIQKQIYRMTP-NH2
notes: Synthetic designed coiled coil-forming peptide; also called all-isoleucine core peptide
Consider B2, for which the binding result in data set [2] is listed as “binds”.
